Data: paper PMC2648068 (Journal of immunology (Baltimore, Md. : 1950), 2009)

Key:
Assay in all cases: ELISA
recombinant human TLR2 = recombinant human TLR2 (human, UniProt O60603 21-588)
recombinant mouse TLR2 = biological target: T1, recombinant mouse TLR2 (mouse, UniProt Q9QUN7 25-587)
T1 sequence (looked up): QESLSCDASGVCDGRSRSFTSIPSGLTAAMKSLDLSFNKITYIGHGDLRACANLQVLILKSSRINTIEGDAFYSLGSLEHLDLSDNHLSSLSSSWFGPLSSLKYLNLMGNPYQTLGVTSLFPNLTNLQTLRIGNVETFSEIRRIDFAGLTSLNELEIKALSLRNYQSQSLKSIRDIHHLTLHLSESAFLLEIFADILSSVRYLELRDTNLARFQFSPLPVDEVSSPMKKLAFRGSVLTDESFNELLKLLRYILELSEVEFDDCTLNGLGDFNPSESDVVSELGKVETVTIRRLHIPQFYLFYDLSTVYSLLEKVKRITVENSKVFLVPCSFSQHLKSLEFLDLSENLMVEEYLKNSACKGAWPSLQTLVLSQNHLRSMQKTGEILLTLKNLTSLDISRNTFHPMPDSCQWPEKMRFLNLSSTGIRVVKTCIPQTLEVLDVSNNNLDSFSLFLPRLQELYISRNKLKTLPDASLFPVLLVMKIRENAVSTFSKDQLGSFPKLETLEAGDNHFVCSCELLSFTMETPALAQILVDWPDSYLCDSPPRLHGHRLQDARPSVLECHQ

recombinant human TLR1 = biological target: T2, recombinant human TLR1 (human, UniProt Q15399 25-580)
T2 sequence (looked up): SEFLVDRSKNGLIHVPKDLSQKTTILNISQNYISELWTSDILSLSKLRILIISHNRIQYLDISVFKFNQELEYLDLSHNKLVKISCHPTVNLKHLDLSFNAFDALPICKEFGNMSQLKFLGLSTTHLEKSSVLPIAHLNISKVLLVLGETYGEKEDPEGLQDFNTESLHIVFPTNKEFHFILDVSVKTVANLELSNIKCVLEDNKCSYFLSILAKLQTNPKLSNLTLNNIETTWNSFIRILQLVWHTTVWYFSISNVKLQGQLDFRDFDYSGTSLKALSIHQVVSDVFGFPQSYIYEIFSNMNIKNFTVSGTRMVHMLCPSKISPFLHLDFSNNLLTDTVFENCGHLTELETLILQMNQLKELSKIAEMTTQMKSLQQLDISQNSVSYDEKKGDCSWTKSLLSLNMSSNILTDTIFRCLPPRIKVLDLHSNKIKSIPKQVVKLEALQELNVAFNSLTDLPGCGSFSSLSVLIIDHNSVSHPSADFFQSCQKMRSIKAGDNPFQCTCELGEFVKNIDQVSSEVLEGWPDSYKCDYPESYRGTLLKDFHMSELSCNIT

recombinant mouse TLR1 = biological target: T3, recombinant mouse TLR1 (mouse, UniProt Q9EPQ1 26-582)
T3 sequence (looked up): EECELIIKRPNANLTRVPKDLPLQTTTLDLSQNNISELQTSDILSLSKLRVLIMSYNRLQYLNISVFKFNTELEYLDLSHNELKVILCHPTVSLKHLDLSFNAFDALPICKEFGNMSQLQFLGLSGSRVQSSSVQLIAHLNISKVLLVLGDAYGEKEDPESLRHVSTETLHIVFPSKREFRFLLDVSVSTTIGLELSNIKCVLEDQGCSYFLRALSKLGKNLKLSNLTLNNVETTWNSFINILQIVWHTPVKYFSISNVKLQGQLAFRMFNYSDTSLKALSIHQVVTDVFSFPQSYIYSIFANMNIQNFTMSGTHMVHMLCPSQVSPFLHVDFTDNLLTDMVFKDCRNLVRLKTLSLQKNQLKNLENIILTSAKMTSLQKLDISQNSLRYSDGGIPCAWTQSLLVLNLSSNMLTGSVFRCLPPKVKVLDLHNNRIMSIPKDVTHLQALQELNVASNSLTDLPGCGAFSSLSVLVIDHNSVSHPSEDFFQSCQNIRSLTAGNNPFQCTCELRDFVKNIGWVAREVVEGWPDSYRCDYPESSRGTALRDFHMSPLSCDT

Measured: binding result

Sequence of recombinant human TLR2 (O60603 21-588): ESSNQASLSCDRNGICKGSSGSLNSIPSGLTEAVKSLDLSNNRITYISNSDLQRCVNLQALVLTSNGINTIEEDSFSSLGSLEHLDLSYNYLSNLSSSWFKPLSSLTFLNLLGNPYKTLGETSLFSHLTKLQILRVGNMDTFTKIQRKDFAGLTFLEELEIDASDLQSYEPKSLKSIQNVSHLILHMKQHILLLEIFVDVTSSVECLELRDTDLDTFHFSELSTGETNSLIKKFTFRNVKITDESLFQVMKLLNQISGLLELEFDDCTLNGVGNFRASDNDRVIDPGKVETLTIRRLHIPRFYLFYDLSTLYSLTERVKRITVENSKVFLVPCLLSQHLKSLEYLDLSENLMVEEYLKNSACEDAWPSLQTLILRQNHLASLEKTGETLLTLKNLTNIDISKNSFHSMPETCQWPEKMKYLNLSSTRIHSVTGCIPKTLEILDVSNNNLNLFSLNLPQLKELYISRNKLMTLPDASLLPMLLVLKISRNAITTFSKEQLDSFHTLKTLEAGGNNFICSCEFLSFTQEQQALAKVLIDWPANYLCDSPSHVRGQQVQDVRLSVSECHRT

B1: LT-IIb-B5, pentameric B subunit of type IIb E. coli enterotoxin (wild-type) (natural protein)
chain: GASQFFKDNCNRTTASLVEGVELTKYISDINNNTDGMYVVSSTGGVWRISRAKDYPDNVMTAEMRKIAMAAVLSGMRVNMCASPASSPNVIWAIELEAE
binds: recombinant human TLR2 | recombinant mouse TLR2 | recombinant human TLR1 | recombinant mouse TLR1
